Measurements as given in FireProtDB (doi:10.1016/j.ijbiomac.2020.05.059).
Several values for one entry are separate records, joined by “and”; a condition that tells them apart may be missing. Equal entries are not always repeated.

Conditions: Equus caballus, pH 6, 25 °C, transition: 2
[1] = GdnHCl, CD, sodium cacodylate, NaCl, reversible: yes, structure 1HRC
[2] = GdnHCl, sodium cacodylate 100 mM, NaCl 100 mM, reversible: no, structure 1HRC
[3] = Urea, CD, sodium cacodylate, NaCl, reversible: yes, structure 1HRC
[4] = Urea, sodium cacodylate 100 mM, NaCl 100 mM, reversible: no, structure 1HRC
[5] = GdnHCl, CD, sodium cacodylate, NaCl, reversible: yes

Sequence of Cytochrome c L95V, P00004 (P00004 whole entry L95V): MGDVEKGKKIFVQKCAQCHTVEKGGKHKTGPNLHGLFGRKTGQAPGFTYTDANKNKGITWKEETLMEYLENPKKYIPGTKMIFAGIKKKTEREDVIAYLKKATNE
Sequence of Cytochrome c wild type, P00004 (P00004 whole entry): as the sequence (P00004 whole entry L95V) above, with V95L counted along it
Sequence of Cytochrome c L95I, P00004 (P00004 whole entry L95I): as the sequence (P00004 whole entry L95V) above, with V95I counted along it

Substance | ddG of mutation (higher = less stable) [1] | denaturant m value [1] | denaturant midpoint (higher = more stable) [1] | unfolding free energy [1] | ddG of mutation (higher = less stable) [2] | denaturant m value [2] | denaturant midpoint (higher = more stable) [2] | unfolding free energy [2] | ddG of mutation (higher = less stable) [3] | denaturant m value [3] | denaturant midpoint (higher = more stable) [3] | unfolding free energy [3] | ddG of mutation (higher = less stable) [4] | denaturant m value [4] | denaturant midpoint (higher = more stable) [4] | unfolding free energy [4] | denaturant m value [5] | denaturant midpoint (higher = more stable) [5] | unfolding free energy [5] | unfolding free energy (Urea, sodium cacodylate 100 mM, NaCl 100 mM, reversible: yes)
Cytochrome c L95I, P00004 | 5.48 kJ/mol and 6.32 kJ/mol | 3.59 kcal/mol/M and 3.64 kcal/mol/M | 2.14 M and 2.15 M | 32.2 kJ/mol and 33.3 kJ/mol | 6.44 kJ/mol and 4.6 kJ/mol and 6.32 kJ/mol | 3.65 kcal/mol/M and 3.49 kcal/mol/M and 3.64 kcal/mol/M | 2.18 M and 2.06 M and 2.15 M | 33.3 kJ/mol and 30 kJ/mol | 7.24 kJ/mol and 7.03 kJ/mol | 1.48 kcal/mol/M and 1.47 kcal/mol/M | 5.87 M and 5.89 M | 36.3 kJ/mol and 36.4 kJ/mol | 7.03 kJ/mol and 7.66 kJ/mol | 1.49 kcal/mol/M and 1.47 kcal/mol/M | 5.9 M and 5.89 M | 36.7 kJ/mol and 36.2 kJ/mol and 36.4 kJ/mol |  |  |  | 
Cytochrome c L95V, P00004 | 6.95 kJ/mol and 7.61 kJ/mol | 3.54 kcal/mol/M and 3.61 kcal/mol/M | 2.07 M and 2.11 M | 30.7 kJ/mol and 32 kJ/mol |  |  | 2.1 M and 2.01 M and 2.11 M |  | 9.87 kJ/mol | 1.47 kcal/mol/M | 5.46 M | 33.6 kJ/mol |  | 1.48 kcal/mol/M and 1.47 kcal/mol/M | 5.46 M and 5.43 M |  |  |  |  | 
Cytochrome c wild type, P00004 |  |  |  |  |  |  |  |  |  |  |  |  |  |  |  |  | 3.64 kcal/mol/M and 3.73 kcal/mol/M | 2.47 M and 2.53 M | 37.7 kJ/mol and 39.6 kJ/mol | 43.8 kJ/mol and 43 kJ/mol and 43.4 kJ/mol
